We go through 1 substance from paper PMC9288967.

Assay [1] deals with spike RBD of the Delta variant (B.1.617.2) (SARS-CoV-2) (UniProt P0DTC2). Nature of the assay: cross-linking.
In assay [2] the target is spike RBD of the Alpha variant (B.1.1.7) (SARS-CoV-2) (UniProt P0DTC2). Description: cross-linking.

Take mNb6(108FFY) (VHH): the kobs (apparent first-order constant of cross-linking) in assay [1] turned out to be 0.156 h⁻¹; in assay [2], 0.086 h⁻¹.
